The record followed here is PMC7052508 (Biochemistry and Biophysics Reports, 2020).

Read-outs that look alike come from different tables or passages of the source.

To fix the notation:
B1: α-crystallin (fraction containing αA-crystallin and αB-crystallin) (complex, porcine (purified from porcine lenses))
chain 1: MDIAIQHPWFKRALGPFYPSRLFDQFFGEGLFEYDLLPFLSSTISPYYRQSLFRTVLDSGVSEVRSDRDKFVIFLDVKHFSPEDLTVKVQEDFVEIHGKHNERQDDHGYISREFHRRYRLPSNVDQSALSCSLSADGMLTFSGPKVPSGVDAGHSERAIPVSREEKPSSAPTS
chain 2: MDIAIHHPWIRRPFFPFHSPSRLFDQFFGEHLLESDLFPASTSLSPFYFRPPSFLRAPSWIDTGLSEMRLEKDRFSVNLDVKHFSPEELKVKVLGDVIEVHGKHEERQDEHGFISREFHRKYRIPADVDPLTITSSLSSDGVLTVNGPRRQASGPERTIPITREEKPAVTAAPKK
B2: creatine kinase M (CKMM) (enzyme)
chain: not shown

Data set [1] deals with B2. Kind of data set: ITC.
For data set [2], the target named is B2. Kind of data set: ITC. The source holds these as a separate data set. A general note: Isothermal titration calorimetry measures the heat released or taken up as one component is titrated into another.
For data set [3], the target named is B2. Kind of data set: ITC. The source holds these as a separate data set.
The data set “SEC-MALS” concerns the molecule itself. The data set can be described thus: SEC-MALS. In general terms: In gel filtration, larger molecules generally elute earlier.
The target of data set [4] is B1. The data set can be described thus: ITC.
Data set [5] addresses B1. Kind of data set: ITC. The source holds these as a separate data set.
The target of data set [6] is B1. Kind of data set: ITC. This is another data set of the same source.
Data set [7] has as its target B1. The data set can be described thus: ITC. This is another data set of the same source.

Chain of creatine kinase M (CKMM) (P00563 whole entry): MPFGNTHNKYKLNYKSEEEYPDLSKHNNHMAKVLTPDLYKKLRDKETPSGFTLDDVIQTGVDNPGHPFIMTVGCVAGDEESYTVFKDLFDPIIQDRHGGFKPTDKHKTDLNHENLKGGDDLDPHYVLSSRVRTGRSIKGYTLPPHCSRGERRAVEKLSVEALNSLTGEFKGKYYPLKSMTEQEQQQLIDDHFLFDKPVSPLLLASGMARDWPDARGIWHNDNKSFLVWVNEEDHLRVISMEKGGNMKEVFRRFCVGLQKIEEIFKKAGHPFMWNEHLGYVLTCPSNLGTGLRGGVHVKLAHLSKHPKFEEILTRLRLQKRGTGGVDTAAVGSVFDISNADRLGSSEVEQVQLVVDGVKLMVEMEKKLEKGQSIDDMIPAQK

What is called Kd is the equilibrium constant for the complex coming apart. A high value points to weaker binding. As a reminder, the stoichiometry N is a count of units in the complex or per binding partner. Take B1: the Ka came to 4.37e+06 M⁻¹ with creatine kinase M (CKMM) [1], 1.23e+06 M⁻¹ with creatine kinase M (CKMM) [2] and 3e+06 M⁻¹ in the data set with creatine kinase M (CKMM) [3]. Also, the Kd in the data set with creatine kinase M (CKMM) [1] came to 228 nM; with creatine kinase M (CKMM) [2], 816 nM; with creatine kinase M (CKMM) [3] it was 333 nM. The “stoichiometry N” value in “SEC-MALS” is 28 to 40.
On to B2, for which the dH in data set [4] stood at 130 kcal/mol; in data set [5], 102 kcal/mol; in data set [7], 86.6 kcal/mol. Also, the “stoichiometry N” value worked out at 0.063 in data set [4], 0.068 in data set [5], 28 in data set [6] and 0.068 in data set [7].
